Assays:
GST-C/EBPβ-bZIP (rat) [1] = molecular target: T1, GST-C/EBPβ-bZIP (rat) (UniProt P21272); assay: fluorescence anisotropy competition; conditions: 25 mM Tris-HCl pH 7.6, 75 mM NaCl, 150 mM KCl, 5 mM MgCl2, 0.1 mM DTT, 0.01% NP-40, room temperature, 20 min
T1 sequence: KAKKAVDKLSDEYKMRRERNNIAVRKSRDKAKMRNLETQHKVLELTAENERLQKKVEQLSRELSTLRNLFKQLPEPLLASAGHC

GST-C/EBPβ-bZIP (rat) [2] = molecular target: T1, GST-C/EBPβ-bZIP (rat); assay: fluorescence anisotropy; conditions: 25 mM Tris-HCl pH 7.6, 75 mM NaCl, 150 mM KCl, 5 mM MgCl2, 0.1 mM DTT, 0.01% NP-40, room temperature, 20 min

Sequence: CCCTGCTTGCATAACAGGCTC (double strand) [HPV18 BS2L competitor]
- Ki (GST-C/EBPβ-bZIP (rat) [1]): 0.154 µM

Sequence: TTTGGCTTACACAATTGCTTT (double strand) [BS1 probe]
- Kd (GST-C/EBPβ-bZIP (rat) [2]): 0.062 µM

Sequence: CCCTGATTGCGCAATAGGCTC (double strand) [Consensus C/EBPβ competitor]
- Ki (GST-C/EBPβ-bZIP (rat) [1]; vs 15 nM BS1 probe, 125 nM protein): 0.027 µM

Sequence: CCCTGCTTACACAATAGGCTC (double strand) [BS1 competitor]
- Ki (GST-C/EBPβ-bZIP (rat) [1]): 0.083 µM

Sequence: CCCTGATTGCAAAATAGGCTC (double strand) [BS2 competitor]
- Ki (GST-C/EBPβ-bZIP (rat) [1]): 0.066 µM
